Biological target: T1, GST-UTP13^1–320 (human, UniProt Q12788 1-320)
T1 sequence: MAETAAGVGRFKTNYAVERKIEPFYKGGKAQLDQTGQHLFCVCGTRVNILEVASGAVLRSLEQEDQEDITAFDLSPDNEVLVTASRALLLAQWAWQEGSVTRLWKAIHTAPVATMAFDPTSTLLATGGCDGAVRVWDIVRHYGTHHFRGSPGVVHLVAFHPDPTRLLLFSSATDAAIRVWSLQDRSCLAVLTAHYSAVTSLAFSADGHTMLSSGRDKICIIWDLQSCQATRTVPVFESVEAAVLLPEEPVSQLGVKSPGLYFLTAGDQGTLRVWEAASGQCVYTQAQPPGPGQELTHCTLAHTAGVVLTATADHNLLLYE
Test: pull-down

B1: HIS-UTP3^1–319 (domain or fragment)
chain: MVGRSRRRGAAKWAAVRAKAGPTLTDENGDDLGLPPSPGDTSYYQDQVDDFHEARSRAALAKGWNEVQSGDEEDGEEEEEEVLALDMDDEDDEDGGNAGEEEEEENADDDGGSSVQSEAEASVDPSLSWGQRKKLYYDTDYGSKSRGRQSQQEAEEEEREEEEEAQIIQRRLAQALQEDDFGVAWVEAFAKPVPQVDEAETRVVKDLAKVSVKEKLKMLRKESPELLELIEDLKVKLTEVKDELEPLLELVEQGIIPPGKGSQYLRTKYNLYLNYCSNISFYLILKARRVPAHGHPVIERLVTYRNLINKLSVVDQKLS
B1: binds.
